Experimental data published in PMC2776655 (Circulation research, 2009).
Residue numbers refer to the chain shown, from its start. Numbers in names are those of the source.

T1: VEGFR-3-Ig (UniProt P35916 25-775)
T1 sequence (looked up): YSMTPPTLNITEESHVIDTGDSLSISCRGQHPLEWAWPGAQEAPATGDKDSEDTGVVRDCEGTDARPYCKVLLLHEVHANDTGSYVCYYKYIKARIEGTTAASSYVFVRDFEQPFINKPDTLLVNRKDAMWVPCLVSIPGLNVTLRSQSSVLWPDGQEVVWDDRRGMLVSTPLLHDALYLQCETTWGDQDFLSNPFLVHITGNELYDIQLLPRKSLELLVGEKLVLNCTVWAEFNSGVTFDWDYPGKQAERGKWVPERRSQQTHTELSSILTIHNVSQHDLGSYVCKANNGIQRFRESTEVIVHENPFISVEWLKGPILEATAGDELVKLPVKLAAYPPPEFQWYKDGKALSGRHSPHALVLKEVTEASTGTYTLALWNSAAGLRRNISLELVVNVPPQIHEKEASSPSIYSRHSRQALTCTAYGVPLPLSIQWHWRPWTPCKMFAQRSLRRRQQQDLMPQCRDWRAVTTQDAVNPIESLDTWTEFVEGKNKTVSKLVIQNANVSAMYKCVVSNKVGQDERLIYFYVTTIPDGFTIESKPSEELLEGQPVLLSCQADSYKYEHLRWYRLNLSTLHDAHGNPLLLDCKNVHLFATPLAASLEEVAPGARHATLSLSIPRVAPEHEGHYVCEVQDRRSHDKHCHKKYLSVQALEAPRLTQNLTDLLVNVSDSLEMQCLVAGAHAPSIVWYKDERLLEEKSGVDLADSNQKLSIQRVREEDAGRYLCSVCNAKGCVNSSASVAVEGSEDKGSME

T2: VEGFR-3 (protein used in isothermal titration calorimetry) (UniProt P35916 25-775)
T2 sequence (looked up): T1 sequence (looked up)

B1: hVEGF-Csf C137A, from transfected 293T cell medium (ligand, human, UniProt P49767 112-227, looked up)
chain: AHYNTEILKSIDNEWRKTQCMPREVAIDVGKEFGVATNTFFKPPCVSVYRCGGCCNSEGLQCMNTSTSYLSKTLFEITVPLSQGPKPVTISFANHTSCRCMSKLDVYRQVHSIIRR
B2: purified hVEGF-Csf C137A (ligand, human, UniProt P49767 112-227, looked up)
chain: B1 chain
B3: purified human VEGF-Csf (ligand, UniProt P49767 112-227, looked up)
chain: B1 chain with A26C

Experiments:
[1] = target: the molecule itself; assay: SDS-PAGE in non-reducing conditions
VEGFR-3-Ig = target: T1, VEGFR-3-Ig; assay: ELISA
VEGFR-2-Ig = VEGFR-2-Ig (UniProt P35968 20-764); assay: ELISA
VEGFR-2-Ig, sequence (P35968 20-764): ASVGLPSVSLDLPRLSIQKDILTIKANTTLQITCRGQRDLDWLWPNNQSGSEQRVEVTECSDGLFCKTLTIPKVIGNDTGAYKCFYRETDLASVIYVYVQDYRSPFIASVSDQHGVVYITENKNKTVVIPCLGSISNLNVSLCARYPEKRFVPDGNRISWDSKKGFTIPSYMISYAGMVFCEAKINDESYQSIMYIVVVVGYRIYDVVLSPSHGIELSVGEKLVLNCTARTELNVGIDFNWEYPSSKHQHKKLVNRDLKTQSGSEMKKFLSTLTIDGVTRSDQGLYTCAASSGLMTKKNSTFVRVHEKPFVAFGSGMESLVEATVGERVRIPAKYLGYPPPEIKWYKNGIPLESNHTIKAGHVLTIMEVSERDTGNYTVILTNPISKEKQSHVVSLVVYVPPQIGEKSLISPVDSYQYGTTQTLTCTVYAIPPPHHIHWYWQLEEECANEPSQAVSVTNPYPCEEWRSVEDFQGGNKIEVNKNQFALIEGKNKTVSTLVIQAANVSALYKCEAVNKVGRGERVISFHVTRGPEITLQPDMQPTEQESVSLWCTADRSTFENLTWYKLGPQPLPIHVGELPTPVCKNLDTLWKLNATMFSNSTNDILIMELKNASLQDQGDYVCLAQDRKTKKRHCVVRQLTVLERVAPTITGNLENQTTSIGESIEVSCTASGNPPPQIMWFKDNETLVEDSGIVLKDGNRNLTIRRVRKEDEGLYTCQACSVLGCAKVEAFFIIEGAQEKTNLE

[2] = target: the molecule itself; assay: SDS-PAGE after treatment with DTT
[3] = target: T2, VEGFR-3 (protein used in isothermal …); assay: ITC

Binder | stoichiometry N [1] | EC50 (VEGFR-3-Ig) [nM] | EC50 (VEGFR-2-Ig) [nM] | stoichiometry N [2] | Kd [3] [nM]
B1 | 2 | – | – | – | –
B2 | – | 1.3 ± 0.3 | 2.7 ± 0.6 | 2 | 280 ± 30
B3 | – | 2.2 ± 0.6 | 2.6 ± 0.3 | – | 310 ± 50
